Laboratory results taken from patent US20060039900A1 (Janssen / Centocor, published 2006).

T1: murine tissue factor from murine brain extracts (murine, UniProt P20352 29-294)
T1 sequence (looked up): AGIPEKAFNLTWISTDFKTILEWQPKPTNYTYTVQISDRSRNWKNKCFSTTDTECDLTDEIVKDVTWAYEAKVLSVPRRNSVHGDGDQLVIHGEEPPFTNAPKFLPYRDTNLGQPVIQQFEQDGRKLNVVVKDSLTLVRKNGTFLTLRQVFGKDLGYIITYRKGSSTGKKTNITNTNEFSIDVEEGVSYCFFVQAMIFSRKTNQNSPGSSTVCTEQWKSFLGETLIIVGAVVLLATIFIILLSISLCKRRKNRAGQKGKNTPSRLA

T2: murine tissue factor on B6F10 melanoma cells (murine, UniProt P20352 29-294)
T2 construct: whole, on cells; also called cell-associated mTF
T2 sequence (looked up): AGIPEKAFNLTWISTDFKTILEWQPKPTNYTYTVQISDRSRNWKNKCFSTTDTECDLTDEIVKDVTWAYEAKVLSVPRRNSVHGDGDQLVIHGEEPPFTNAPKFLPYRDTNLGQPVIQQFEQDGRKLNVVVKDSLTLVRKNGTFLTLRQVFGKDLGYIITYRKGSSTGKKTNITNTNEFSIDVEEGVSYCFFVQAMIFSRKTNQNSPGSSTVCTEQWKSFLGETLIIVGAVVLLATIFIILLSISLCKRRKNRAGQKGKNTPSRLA


What was measured:
[1] = target: T1, murine tissue factor from murine brain …; test: cell-based or functional assay
[2] = target: T2, murine tissue factor on B6F10 melanoma …; test: flow cytometry (FACS) on B6F10 melanoma cells expressing mTF

| EC50 Conc. (ug/ml) for human plasma (inhibition of fibrin clot formation, murine brain extracts as source of mTF) [1] [µg/mL] | EC50 [2] [nM] | Binder |
| --- | --- | --- |
| 23.8 |  | PHD104 Fab (Fab, V domains shown) VH: QVQLVQSGAEVKKPGESLKISCKGSYSFTSNWIGWVRQMPGKGLEWMGWIYPSDSMTRYSPSFQGQVTISADKSISTAYLQWSSLKASDTAMYYCARYLFGLFDNWGQGTLVTVSS VL: DIELTQPPSVSVAPGQTARISCSGDNLGSYYVSWYQQKPGQAPVLVIYNDNNRPSGIPERFSGSNSGNTATLTISGTQAEDEADYYCATYDSSTDVFGGGTKLTVLG |
| 0.23 |  | PHD126 Fab (Fab, V domains shown) VH: QVQLVQSGAEVKKPGESLKISCKGSYSFSNYWIGWVRQMPGKGLEWMGFIDPDDSDTNYSPSFQGQVTISADKSISTAYLQWSSLKASDTAMYYCARALYMQGGSFDSWGQGTLVTVSS VL: DIELTQPPSVSVAPGQTARISCSGDNLGSYYVSWYQQKPGQAPVLVIYRDTDRPSGIPERFSGSNSGNTATLTISGTQAEDEADYYCQSYDYGVSNQVFGGGTKLTVLG |

Further lines, the binder ahead of its results:

| Binder | EC50 Conc. (ug/ml) for human plasma (inhibition of fibrin clot formation, murine brain extracts as source of mTF) [1] [µg/mL] | EC50 [2] [nM] |
| --- | --- | --- |
| PHD127 Fab (Fab, V domains shown, Human Fab from the HuCAL library) VH: QVQLVQSGAEVKKPGESLKISCKGSYSFTNSWISWVRQMPGKGLEWMGIIDPDDSYTSYSPSFQGQVTISADKSISTAYLQWSSLKASDTAMYYCARGAGYGRMFGDVWGQGTLVTVSS VL: DIELTQPPSVSVAPGQTARISCSGDNLGSYYASWYQQKPGQAPVLVIYQDDNRPSGIPERFSGSNSGNTATLTISGTQAEDEADYYCGAYTYSTSWVFGGGTKLTVLG | 0.82 | 4.35 |
| PHD103 Fab (Fab, V domains shown) VH: QVQLVQSGAEVKKPGESLKISCKGSGYSFSNSWIAWVRQMPGKGLEWMGGIIGPGHSYTKYSPSFQGQVTISADKSISTAYLQWSSLKASDTAMYYCARINMGYFDYWGQGTLVTVSS VL: DIELTQPPSVSVAPGQTARISCSGDSLGLKKFVSWYQQKPGQAPVLVIYDDSNRPSGIPERFSGSNSGNTATLTISGTQAEDEADYYCGTYDQTIGHDVVFGGGTKLTVLG | 63.3 |  |
